Results on ten substances are retold here after patent publication US20160271244A1.

For test [1], the target named is gp120 (Table 2, strain not given). As to the kind of experiment: Luminex bead assay.
In test [2] the target is membrane conjugated gp41-inter. Kind of test: SPR, gp41-inter held by Ni on liposomes captured on the chip, mAb injected; bivalent analyte fit [left panel]. Background: SPR reads the build-up and loss of mass on a sensor chip optically.
The target in a further test is HIV-1 Env gp41 (HIV-1) (UniProt P05877). As to the kind of experiment: Luminex bead assay.
For test [3], the target named is recombinant human kynureninase (rhKYNU) (human) (UniProt Q16719). Kind of test: ELISA on plate-bound rhKYNU, 2F5 titrated (overlay with DP178-Q16L). A general note: An ELISA detects its analyte on a solid surface through an enzyme-linked reagent.
recombinant human kynureninase (rhKYNU) (human), sequence (Q16719 whole entry): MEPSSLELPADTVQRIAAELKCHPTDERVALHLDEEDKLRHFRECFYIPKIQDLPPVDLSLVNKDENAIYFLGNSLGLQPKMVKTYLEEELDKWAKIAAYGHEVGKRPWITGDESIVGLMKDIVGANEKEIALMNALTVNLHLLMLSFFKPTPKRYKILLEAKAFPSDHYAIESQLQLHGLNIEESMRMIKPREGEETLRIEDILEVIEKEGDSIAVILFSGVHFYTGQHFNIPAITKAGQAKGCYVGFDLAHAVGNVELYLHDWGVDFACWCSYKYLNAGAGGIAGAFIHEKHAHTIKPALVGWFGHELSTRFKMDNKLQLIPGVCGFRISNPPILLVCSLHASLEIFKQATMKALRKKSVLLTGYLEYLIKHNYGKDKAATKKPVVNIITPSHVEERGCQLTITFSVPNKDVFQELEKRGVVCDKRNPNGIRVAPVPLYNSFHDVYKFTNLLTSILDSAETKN
Test [4] has the same target. As to the kind of experiment: ELISA on plate-bound rhKYNU, antibody titrated.
The target is the same in test [5]. As to the kind of experiment: ELISA on plate-bound rhKynureninase, antibody titrated.
For test [6], the target named is SSB. As to the kind of experiment: Athena autoantigen assay, mAb 6.25 ug/ml.
SSB, sequence (P05455 whole entry): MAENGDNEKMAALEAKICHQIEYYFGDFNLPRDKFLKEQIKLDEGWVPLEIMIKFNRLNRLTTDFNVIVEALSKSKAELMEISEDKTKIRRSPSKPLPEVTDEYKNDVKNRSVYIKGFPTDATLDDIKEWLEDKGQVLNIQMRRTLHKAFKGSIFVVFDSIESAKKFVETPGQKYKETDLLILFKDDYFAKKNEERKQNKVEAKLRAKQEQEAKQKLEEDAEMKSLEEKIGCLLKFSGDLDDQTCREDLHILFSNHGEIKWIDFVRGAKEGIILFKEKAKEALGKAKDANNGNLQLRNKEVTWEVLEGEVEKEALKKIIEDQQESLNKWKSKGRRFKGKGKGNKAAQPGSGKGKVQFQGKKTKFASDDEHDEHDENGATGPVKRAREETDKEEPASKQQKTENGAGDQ
Test [7] deals with Jo 1. As to the kind of experiment: Athena autoantigen assay, mAb 6.25 ug/ml.
Jo 1, sequence (P12081 2-509): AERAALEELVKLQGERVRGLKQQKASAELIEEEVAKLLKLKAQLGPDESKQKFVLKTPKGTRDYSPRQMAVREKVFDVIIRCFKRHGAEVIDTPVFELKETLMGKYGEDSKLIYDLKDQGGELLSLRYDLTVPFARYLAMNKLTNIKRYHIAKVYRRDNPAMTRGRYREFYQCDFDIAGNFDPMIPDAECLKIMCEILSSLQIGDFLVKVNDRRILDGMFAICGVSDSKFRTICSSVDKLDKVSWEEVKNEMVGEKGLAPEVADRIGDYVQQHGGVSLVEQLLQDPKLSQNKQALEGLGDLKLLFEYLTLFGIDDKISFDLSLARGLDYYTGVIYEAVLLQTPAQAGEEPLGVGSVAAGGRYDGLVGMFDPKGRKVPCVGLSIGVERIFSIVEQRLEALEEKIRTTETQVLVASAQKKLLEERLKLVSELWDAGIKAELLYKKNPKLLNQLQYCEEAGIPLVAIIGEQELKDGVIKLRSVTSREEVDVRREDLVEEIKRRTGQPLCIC
In test [8] the target is SSA. Kind of test: Athena autoantigen assay, mAb 6.25 ug/ml.
In test [9] the target is Scl 70. As to the kind of experiment: Athena autoantigen assay, mAb 6.25 ug/ml.
Test [10] concerns the target Sm. As to the kind of experiment: Athena autoantigen assay, mAb 6.25 ug/ml.
Test [11] concerns the target RNP. As to the kind of experiment: Athena autoantigen assay, mAb 6.25 ug/ml.
Test [12] deals with Histone. As to the kind of experiment: Athena autoantigen assay, mAb 6.25 ug/ml.
Test [13] deals with SSB. As to the kind of experiment: Athena autoantigen assay, mAb 25 ug/ml.
For test [14], the target named is Jo 1. As to the kind of experiment: Athena autoantigen assay, mAb 25 ug/ml.
The target of test [15] is SSA. Kind of test: Athena autoantigen assay, mAb 25 ug/ml.
Test [16] concerns the target Scl 70. Kind of test: Athena autoantigen assay, mAb 25 ug/ml.
Test [17] addresses Sm. Kind of test: Athena autoantigen assay, mAb 25 ug/ml.
Test [18] deals with RNP. As to the kind of experiment: Athena autoantigen assay, mAb 25 ug/ml.
For test [19], the target named is Histone. As to the kind of experiment: Athena autoantigen assay, mAb 25 ug/ml.
Test [20] deals with Influenza HA (Wisconsin) (influenza virus). As to the kind of experiment: Luminex assay, antibody 50 µg/ml.
The next test deals with HCV E2 (HCV). Kind of test: Luminex assay, antibody 50 µg/ml.
Test [21] concerns the target SSB. As to the kind of experiment: Athena autoantigen assay, mAb 12.5 ug/ml.
The target in test [22] is Jo 1. As to the kind of experiment: Athena autoantigen assay, mAb 12.5 ug/ml.
The target in test [23] is SSA. As to the kind of experiment: Athena autoantigen assay, mAb 12.5 ug/ml.
Test [24] addresses Scl 70. As to the kind of experiment: Athena autoantigen assay, mAb 12.5 ug/ml.
In test [25] the target is Sm. Kind of test: Athena autoantigen assay, mAb 12.5 ug/ml.
Test [26] has as its target RNP. As to the kind of experiment: Athena autoantigen assay, mAb 12.5 ug/ml.
For test [27], the target named is Histone. As to the kind of experiment: Athena autoantigen assay, mAb 12.5 ug/ml.
Test [28] has as its target RNP. As to the kind of experiment: Athena autoantigen assay, mAb 50 ug/ml.
Test [29] deals with Histone. As to the kind of experiment: Athena autoantigen assay, mAb 50 ug/ml.
Test [30] has as its target HV00044 (6240 TZ5 140C) (HIV-1). As to the kind of experiment: surface plasmon resonance; five sensorgrams with fitted curves, highest rising to about 650 RU with almost no dissociation up to 1000 s.
Test [31] concerns the target Env (gp120) of HIV-1 JRFL.E168K (HIV-1). Kind of test: cell-based or functional assay.
Test [32] concerns the target Env (gp120) of HIV-1 isolate JRFL (virus) (HIV-1). Kind of test: cell-based or functional assay.
The target of test [33] is Env (gp120) of HIV-1 JRFL.N160K.E168K (HIV-1). Kind of test: cell-based or functional assay.
Test [34] concerns the target Env (gp120) of HIV-1 JRCSF.N160K (HIV-1) (UniProt P20871). As to the kind of experiment: cell-based or functional assay.
The target in test [35] is Env (gp120) of HIV-1 isolate 7165.18 (HIV-1). As to the kind of experiment: cell-based or functional assay.
Test [36] concerns the target Env (gp120) of HIV-1 isolate JRCSF (HIV-1) (UniProt P20871). As to the kind of experiment: cell-based or functional assay.
The target in test [37] is Env (gp120) of HIV-1 7165.18.N160K (HIV-1). As to the kind of experiment: cell-based or functional assay.
Test [38] deals with Env (gp120) of HIV-1 Q23.17.N160K (HIV-1). As to the kind of experiment: cell-based or functional assay.
Test [39] has as its target Env (gp120) of HIV-1 isolate Q23.17 (HIV-1). Kind of test: cell-based or functional assay.

1b12 original (antibody): the Reactivity in Luminex Units (Luminex units) in test [1] came out at 5110.

Usually koff stands for a measure of how fast the partners let go of each other. For orientation: EC50 (read off the curve) means the concentration giving half of the maximal effect. 2F5 (antibody): the Kd in test [2] was 0.21 nM. For the same substance, the koff in test [2] amounted to 9e-06 s⁻¹. Further, the Reactivity in Luminex Units (Luminex units) in test [1] was found to be 9240; with HIV-1 Env gp41 (HIV-1), 32700. The EC50 (read off the curve) was 50 ng/mL in test [3], 50 ng/mL in [4] and 30 ng/mL in test [5].

“17b original (CCR5 binding site antibody)”: the Reactivity in Luminex Units (Luminex units) with HIV-1 Env gp41 (HIV-1) stood at 1430.

Turning to CH02 (antibody), the Athena autoreactivity score turned out to be 5 in the test with SSB [6]; 1.5 with Jo 1 [7]; 5 with SSA [8]; 2 with Scl 70 [9]; 2.5 in the test with Sm [10]; 5 in the test with RNP [11]. For the same substance, the Athena autoreactivity score is 7 with Histone [12]; 4.5 with SSB [13]; 1.5 in the test with Jo 1 [14]; 6 with SSA [15]; 2 with Scl 70 [16]; 3 with Sm [17]. In addition, the Athena autoreactivity score in the test with RNP [18] is 9; with Histone [19], 11.5; with SSB [21], 3.5; with Jo 1 [22] it was 1; in the test with SSA [23] it was 5; with Scl 70 [24], 1.5. In addition, the Athena autoreactivity score with Sm [25] is 2.5; with RNP [26], 6; with Histone [27] it was 8.5. Also, the background subtracted RFUs was found to be 0.3 RFU in test [20] and 333 RFU with HCV E2 (HCV).

Regarding CH03 (antibody), the Athena autoreactivity score in the test with SSB [6] worked out at 5; with Jo 1 [7], 3; in the test with SSA [8], 5; with Scl 70 [9] it was 4; with Sm [10] it was 7; with RNP [11], 51. Further, the Athena autoreactivity score with Histone [12] was determined as 231; with RNP [28] it was 132; in the test with Histone [29] it was 844; with SSB [13], 4; with Jo 1 [14], 4; with SSA [15], 6. In addition, the Athena autoreactivity score with Scl 70 [16] stood at 7; with Sm [17] it was 10; in the test with RNP [18], 70; in the test with Histone [19] it was 386; with SSB [21], 6; with Jo 1 [22] it was 4. The Athena autoreactivity score amounted to 6 with SSA [23]; 8 with Scl 70 [24]; 9 with Sm [25]; 74 with RNP [26]; 359 with Histone [27]. The background subtracted RFUs in [20] was found to be 1 RFU; with HCV E2 (HCV), 2910 RFU.

Consider CH04 (antibody), for which the background subtracted RFUs in test [20] was 2.5 RFU; with HCV E2 (HCV), 0.5 RFU.

On to CH05 (antibody), for which the figures for the background subtracted RFUs (in test [20]; with HCV E2 (HCV)) were 5.5 RFU and 1.3 RFU, respectively.

With PG9 (antibody), the Kd in test [30] came out at 0.75 nM. Moreover, the IC50 (virus neutralization) in [31] was 8 ng/mL; in test [32], more than 50 µg/mL; in [33], more than 50 µg/mL; in [34] it was more than 50 µg/mL; in test [35] it was more than 50 µg/mL; in test [36] it was 3 ng/mL. Besides, the IC50 (virus neutralization) in test [37] was more than 50 µg/mL; in [38], more than 50 µg/mL; in [39], 2 ng/mL. For the same substance, the IC80 (virus neutralization) was 0.055 µg/mL in [31]; more than 50 µg/mL in test [32]; more than 50 µg/mL in [33]; more than 50 µg/mL in [34]; more than 50 µg/mL in test [35]; 8 ng/mL in test [36]. Besides, the IC80 (virus neutralization) is more than 50 µg/mL in [37], more than 50 µg/mL in test [38] and 5 ng/mL in [39]. For the same substance, the background subtracted RFUs (in test [20]; in the test with HCV E2 (HCV)) was 0 RFU each time.

Regarding PG16 (antibody), the IC50 (virus neutralization) in test [31] was 3 ng/mL; in [32], more than 50 µg/mL; in test [33] it was more than 50 µg/mL; in test [34] it was more than 50 µg/mL; in test [35], 11.8 µg/mL; in test [36], 3 ng/mL. In addition, the values for the IC50 (virus neutralization) in test [37], in test [38] and in [39] were more than 50 µg/mL, more than 50 µg/mL and 1 ng/mL, respectively. The IC80 (virus neutralization) in test [31] is 0.015 µg/mL; in test [32] it was more than 50 µg/mL; in test [33] it was more than 50 µg/mL; in test [34] it was more than 50 µg/mL; in [35] it was more than 50 µg/mL; in [36] it was 12 ng/mL. The IC80 (virus neutralization) in [37] is more than 50 µg/mL; in test [38] it was more than 50 µg/mL; in [39], 3 ng/mL. Also, the background subtracted RFUs (in [20]; in the test with HCV E2 (HCV)) was 0 RFU each time.

“Synagis (anti-RSV control mAb) (antibody)”: the background subtracted RFUs was determined as 1 RFU in test [20] and 0.5 RFU with HCV E2 (HCV).
